Measured values taken from US20230143604A1, “QW DOSING OF GIP RECEPTOR AGONIST PEPTIDE COMPOUNDS AND USES THEREOF” (TAKEDA PHARMACEUTICAL COMPANY LIMITED, priority 2020, published 2023).
Starred links: 1 amine or outer side, 2 acyl side, 3 side chain; linkers in the order of their positions; H or OH if unused. Non-standard residues stand in square brackets, D forms with d. Groups on a side chain read outwards from the residue. No end group written: not given here. *: point of attachment. 2OEGgEgE‑C18 diacid = O=C(O)CCCCCCCCCCCCCCCCC(=O)N[C@@H](CCC(=O)N[C@@H](CCC(=O)NCCOCCOCC(=O)NCCOCCOCC(=O)*)C(=O)O)C(=O)O; C20 diacid = O=C(O)CCCCCCCCCCCCCCCCCCC(=O)*; C18 diacid = O=C(O)CCCCCCCCCCCCCCCCC(=O)*; γGlu = O=C(O)[C@H](CCC(=O)[*:2])N[*:1]; NMeY = CN[C@@H](Cc1ccc(O)cc1)C(=O)O; AEEA = NCCOCCOCC(=O)O; E∗ = not defined here; K∗ = not defined here; Aib = CC(C)(N)C(=O)O

T1: full-length human GIPR with an N-terminal FLAG tag, overexpressed on HEK-293T cells (human, UniProt P48546 22-466)
T1 sequence (looked up): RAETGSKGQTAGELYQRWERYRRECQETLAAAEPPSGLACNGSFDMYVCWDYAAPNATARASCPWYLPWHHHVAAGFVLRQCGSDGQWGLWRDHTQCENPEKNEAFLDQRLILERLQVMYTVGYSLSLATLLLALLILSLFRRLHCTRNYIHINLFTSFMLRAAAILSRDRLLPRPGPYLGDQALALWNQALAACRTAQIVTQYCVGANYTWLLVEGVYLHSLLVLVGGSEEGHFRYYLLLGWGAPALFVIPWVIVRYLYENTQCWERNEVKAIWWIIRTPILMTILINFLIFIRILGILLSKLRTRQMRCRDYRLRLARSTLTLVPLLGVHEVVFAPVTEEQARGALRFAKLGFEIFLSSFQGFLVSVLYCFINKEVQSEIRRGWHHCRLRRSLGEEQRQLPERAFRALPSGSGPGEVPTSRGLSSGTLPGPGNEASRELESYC

T2: full-length human GIPR with an N-terminal FLAG tag (human, UniProt P48546 22-466)
T2 sequence (looked up): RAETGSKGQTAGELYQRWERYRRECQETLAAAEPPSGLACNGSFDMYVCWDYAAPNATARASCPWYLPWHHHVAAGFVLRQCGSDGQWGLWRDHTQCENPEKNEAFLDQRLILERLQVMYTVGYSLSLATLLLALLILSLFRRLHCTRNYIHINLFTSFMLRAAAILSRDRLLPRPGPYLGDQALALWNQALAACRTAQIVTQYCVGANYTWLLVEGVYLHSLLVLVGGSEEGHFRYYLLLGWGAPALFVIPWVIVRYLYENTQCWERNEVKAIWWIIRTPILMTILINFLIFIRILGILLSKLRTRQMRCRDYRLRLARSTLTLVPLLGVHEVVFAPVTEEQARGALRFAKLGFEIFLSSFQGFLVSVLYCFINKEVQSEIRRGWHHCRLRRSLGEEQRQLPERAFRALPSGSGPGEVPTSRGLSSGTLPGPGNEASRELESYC


What was measured:
Assay in all cases: cell-based or functional assay
[1] = target: T1, full-length human GIPR with an …
[2] = target: full-length human GLP-1R with an N-terminal FLAG tag, overexpressed on HEK-293T cells (human, UniProt P43220 24-463)
[3] = target: T2, full-length human GIPR with an …
[4] = target: full-length human GLP-1R with an N-terminal FLAG tag (human, UniProt P43220 24-463)

Row | Binder | Human GIPR cAMP EC50, HEK293T [1] [pM] | Human GLP1R cAMP EC50, HEK293T [2] [nM] | Human GIPR cAMP EC50, HEK293T [3] [pM] | Human GLP1R cAMP EC50, HEK293T [4] [nM]
1 | [NMeY][Aib]EGTFISDYSI[Aib]LDK[Aib]AQ[Aib]K([AEEA-AEEA-γGlu-γGlu-C18 diacid])FVNWLLAQRG-OH [Compound No. 211] | 0.5 | – | – | –
2 | H-Y[Aib]EGTFISDYSIALDK[Aib]K([AEEA-AEEA-γGlu-C18 diacid])QADFVEWLLAQRG-OH (SMILES CC[C@H](C)[C@H](NC(=O)[C@H](CO)NC(=O)[C@H](Cc1ccc(O)cc1)NC(=O)[C@H](CC(=O)O)NC(=O)[C@H](CO)NC(=O)[C@@H](NC(=O)[C@H](Cc1ccccc1)NC(=O)[C@@H](NC(=O)CNC(=O)[C@H](CCC(=O)O)NC(=O)C(C)(C)NC(=O)[C@@H](N)Cc1ccc(O)cc1)[C@@H](C)O)[C@@H](C)CC)C(=O)N[C@@H](C)C(=O)N[C@@H](CC(C)C)C(=O)N[C@@H](CC(=O)O)C(=O)N[C@@H](CCCCN)C(=O)NC(C)(C)C(=O)N[C@@H](CCCCNC(=O)COCCOCCNC(=O)COCCOCCNC(=O)CC[C@H](NC(=O)CCCCCCCCCCCCCCCCC(=O)O)C(=O)O)C(=O)N[C@@H](CCC(N)=O)C(=O)N[C@@H](C)C(=O)N[C@@H](CC(=O)O)C(=O)N[C@@H](Cc1ccccc1)C(=O)N[C@H](C(=O)N[C@@H](CCC(=O)O)C(=O)N[C@@H](Cc1c[nH]c2ccccc12)C(=O)N[C@@H](CC(C)C)C(=O)N[C@@H](CC(C)C)C(=O)N[C@@H](C)C(=O)N[C@@H](CCC(N)=O)C(=O)N[C@@H](CCCNC(=N)N)C(=O)NCC(=O)O)C(C)C) [Compound No. 162] | 0.4 | 589 | – | –
3 | H-Y[Aib]EGTFISDYSI[Aib]LDKIK([AEEA-AEEA-γGlu-C18 diacid])QADFVNWLLAQRG-OH (SMILES CC[C@H](C)[C@H](NC(=O)[C@H](CCCCN)NC(=O)[C@H](CC(=O)O)NC(=O)[C@H](CC(C)C)NC(=O)C(C)(C)NC(=O)[C@@H](NC(=O)[C@H](CO)NC(=O)[C@H](Cc1ccc(O)cc1)NC(=O)[C@H](CC(=O)O)NC(=O)[C@H](CO)NC(=O)[C@@H](NC(=O)[C@H](Cc1ccccc1)NC(=O)[C@@H](NC(=O)CNC(=O)[C@H](CCC(=O)O)NC(=O)C(C)(C)NC(=O)[C@@H](N)Cc1ccc(O)cc1)[C@@H](C)O)[C@@H](C)CC)[C@@H](C)CC)C(=O)N[C@@H](CCCCNC(=O)COCCOCCNC(=O)COCCOCCNC(=O)CC[C@H](NC(=O)CCCCCCCCCCCCCCCCC(=O)O)C(=O)O)C(=O)N[C@@H](CCC(N)=O)C(=O)N[C@@H](C)C(=O)N[C@@H](CC(=O)O)C(=O)N[C@@H](Cc1ccccc1)C(=O)N[C@H](C(=O)N[C@@H](CC(N)=O)C(=O)N[C@@H](Cc1c[nH]c2ccccc12)C(=O)N[C@@H](CC(C)C)C(=O)N[C@@H](CC(C)C)C(=O)N[C@@H](C)C(=O)N[C@@H](CCC(N)=O)C(=O)N[C@@H](CCCNC(=N)N)C(=O)NCC(=O)O)C(C)C) [Compound No. 172] | – | 93.3 | – | –
4 | H-Y[Aib]EGTFISDYSIALDKAK([AEEA-AEEA-γGlu-C18 diacid])Q[Aib]DFVEWLLAQRG-OH [Compound No. 161] | 0.1 | 85.1 | – | –
5 | [NMeY][Aib]EGTFISDYSI[Aib]LDR[Aib]AQ[Aib]K([AEEA-AEEA-γGlu-γGlu-C20 diacid])FVNWLLAQRG-OH [Compound No. 159] | 0.9 | 11.7 | – | –
6 | YXEGTFISDYSIAXDKAAQQXFVEWLLAQRG (N-terminus H; Aib at 2, 14; Km at 21 = Lys(2OEGgEgE-C18DA); C-terminus OH) [Compound No. 157] | 0.3 | 437 | – | –
7 | YXEGTFISDYSIAXDKAAQAXFVEWLLAQRG (N-terminus H; Aib at 2, 14; Km at 21 = Lys(2OEGgEgE-C18DA); C-terminus OH) [Compound No. 158] | 0.5 | 339 | – | –
8 | YXEGTFISDYSIALDRXAQXDFVNWLLAQRPSSGAPPPS (N-methyl Tyr 1; Aib at 2,20; Lys(G5-C18 diacid) at 17; C-terminal OH) [Compound No. 51] | – | – | 0.6 | 14.8
9 | Me-Y[Aib]EGTFISDYSI[Aib]LDR[Aib]AQ[Aib]KFVNWLLAQRG-OH (not fully specified (residues 1, 21)) [Compound No. 209] | 0.4 | – | – | –
10 | [NMeY][Aib]EGTFISDYSIALDR[Aib]K(2OEGgEgE‑C18 diacid)Q[Aib]DFVNWLLAQRG-OH (N-terminus assumed; SMILES CC[C@H](C)[C@H](NC(=O)[C@H](CO)NC(=O)[C@H](Cc1ccc(O)cc1)NC(=O)[C@H](CC(=O)O)NC(=O)[C@H](CO)NC(=O)[C@@H](NC(=O)[C@H](Cc1ccccc1)NC(=O)[C@@H](NC(=O)CNC(=O)[C@H](CCC(=O)O)NC(=O)C(C)(C)NC(=O)[C@H](Cc1ccc(O)cc1)NC)[C@@H](C)O)[C@@H](C)CC)C(=O)N[C@@H](C)C(=O)N[C@@H](CC(C)C)C(=O)N[C@@H](CC(=O)O)C(=O)N[C@@H](CCCNC(=N)N)C(=O)NC(C)(C)C(=O)N[C@@H](CCCCNC(=O)COCCOCCNC(=O)COCCOCCNC(=O)CC[C@H](NC(=O)CC[C@H](NC(=O)CCCCCCCCCCCCCCCCC(=O)O)C(=O)O)C(=O)O)C(=O)N[C@@H](CCC(N)=O)C(=O)NC(C)(C)C(=O)N[C@@H](CC(=O)O)C(=O)N[C@@H](Cc1ccccc1)C(=O)N[C@H](C(=O)N[C@@H](CC(N)=O)C(=O)N[C@@H](Cc1c[nH]c2ccccc12)C(=O)N[C@@H](CC(C)C)C(=O)N[C@@H](CC(C)C)C(=O)N[C@@H](C)C(=O)N[C@@H](CCC(N)=O)C(=O)N[C@@H](CCCNC(=N)N)C(=O)NCC(=O)O)C(C)C) [Compound No. 49] | – | – | 0.6 | 107
11 | Me-Y[Aib]EGTFISDYSIALDR[Aib]HQQ[E∗]FV[K∗]WLLAQK([AEEA-AEEA-γGlu-C18 diacid])PSSGAPPPS-NH2 (not fully specified (residue 1); reading uncertain; also: E* at 21 and K* at 24 marked, meaning not given here) [Compound No. 181] | 0.4 | – | – | –
12 | H-Y[Aib]EGTFISDYSIALDKIK([AEEA-AEEA-γGlu-C18 diacid])Q[Aib]DFVEWLLAQRG-OH [Compound No. 160] | 0.3 | 537 | – | –
13 | YXEGTFISDYSIAMDKIHQQDFVNWLLAQXGKKNDWKHNITQ (N-TER cell blank; Aib at 2; Km at 30 = Lys(2OEGgE-C18DA); C-terminus OH) [Compound No. 189] | – | 219 | – | –
14 | [NMeY][Aib]EGTFISDYSI[Aib]LDK[Aib]AQ[Aib]K([AEEA-AEEA-γGlu-γGlu-C18 diacid])FVNWLLAQRG-OH [Compound No. 220] | 0.5 | – | – | –
15 | [NMeY][Aib]EGTFISDYSIALDR[Aib]AQ[Aib]K([AEEA-AEEA-γGlu-γGlu-C18 diacid])FVNWLLAQRG-OH [Compound No. 213] | – | 40.7 | – | –
16 | Y[Aib]EGTFISDYSIALDK[Aib]AQRK([AEEA-AEEA-γGlu-γGlu-C18 diacid])FVEWLLAQRG-OH (N-terminus assumed; SMILES CC[C@H](C)[C@H](NC(=O)[C@H](CO)NC(=O)[C@H](Cc1ccc(O)cc1)NC(=O)[C@H](CC(=O)O)NC(=O)[C@H](CO)NC(=O)[C@@H](NC(=O)[C@H](Cc1ccccc1)NC(=O)[C@@H](NC(=O)CNC(=O)[C@H](CCC(=O)O)NC(=O)C(C)(C)NC(=O)[C@@H](N)Cc1ccc(O)cc1)[C@@H](C)O)[C@@H](C)CC)C(=O)N[C@@H](C)C(=O)N[C@@H](CC(C)C)C(=O)N[C@@H](CC(=O)O)C(=O)N[C@@H](CCCCN)C(=O)NC(C)(C)C(=O)N[C@@H](C)C(=O)N[C@@H](CCC(N)=O)C(=O)N[C@@H](CCCNC(=N)N)C(=O)N[C@@H](CCCCNC(=O)COCCOCCNC(=O)COCCOCCNC(=O)CC[C@H](NC(=O)CC[C@H](NC(=O)CCCCCCCCCCCCCCCCC(=O)O)C(=O)O)C(=O)O)C(=O)N[C@@H](Cc1ccccc1)C(=O)N[C@H](C(=O)N[C@@H](CCC(=O)O)C(=O)N[C@@H](Cc1c[nH]c2ccccc12)C(=O)N[C@@H](CC(C)C)C(=O)N[C@@H](CC(C)C)C(=O)N[C@@H](C)C(=O)N[C@@H](CCC(N)=O)C(=O)N[C@@H](CCCNC(=N)N)C(=O)NCC(=O)O)C(C)C) [Compound No. 156] | 1.3 | 10.2 | – | –
17 | [NMeY][Aib]EGTFISDYSIAEDRKHQ[Aib]NFVNWLLAQK([AEEA-AEEA-γGlu-C18 diacid])PSSGAPPPS-NH2 (also: E* at 14 and K* at 17 marked * (not explained)) [Compound No. 184] | 0.5 | – | – | –
